What was measured:
[1] = target: Biotinylated human serum albumin (Homo sapiens) (UniProt P02768); assay: flow cytometry on cells; yeast surface titration at pH 7.4: NbAlb1 displayed on yeast (2 x 10^5 cells per well), ten concentrations of soluble biotinylated SA from 30 pM to 1 μM, 1 h at 4°C, PBS pH 7.4 with 0.01% w/v casein, NeutrAvidin DyLight 650, MFI; three independent experiments
[2] = target: Biotinylated recombinant mouse serum albumin (Mus musculus) (UniProt P07724); assay: as above

Substance: NbAlb1 displayed on the surface of yeast as NbAlb1-(G4S)3-HA-pStalk fusion protein (VHH)
- Kd [1]: 6.6 nM
- Kd [2]: 54.5 nM
